{"source": "paper PMC9618554", "origin": "cited, not measured here", "biological_target": "insulin receptor site-2' (Homo sapiens) (UniProt P06213)"}
{"substance": "insulin (from UniProt P01308)", "values": [{"measurement": "Kd", "result": 0.4, "unit": "µM"}]}
